US12065466B2, “Methods and compositions for protein sequencing” (Quantum-Si Incorporated, priority 2020, dated 2024)
Where two headings read alike, the source gives them in different places.

Tests used:
[1] = system: amino acid at a terminal position of a polypeptide; experiment: Amino acid binding preference of recognition proteins (Tables 1 and 2); conditions: Table 1, ClpS proteins; amino acid identity at a terminal position of a polypeptide; inferred from literature and/or demonstrated by the inventors
Description: It should be appreciated that these sequences and other examples described herein are meant to be non-limiting, and recognition molecules in accordance with the application can include any homologs, variants thereof, or fragments thereof minimally containing domains or subdomains responsible for peptide recognition.

[2] = system: immobilized peptides containing an N-terminal amino acid of interest (XAKLDEESILKQK; XXKLDEESILKQK); experiment: Biolayer interferometry screening of ClpS homologs; format: binding; conditions: for binding to isoleucine peptides, effect of penultimate amino acid: IR, IQ, IA peptides; for binding to valine peptides, effect of penultimate amino acid: VA, VR peptides
Experimental: The amino acid binding profile of each new homolog was evaluated by biolayer interferometry. ClpS proteins with known binding profiles (atClpS2-V1, atClpS1, and teClpS) were included as controls. In these assays, peptides containing an N-terminal amino acid of interest were immobilized on a biolayer interferometry sensor surface, allowed to bind to ClpS protein, and incubated in buffer to allow the ClpS molecules to dissociate. The binding response (nm) and dissociation off-rate (kdis, s^−1) were measured using a kinetic model. Measurements with each ClpS protein were carried out at 30° C. for the amino acids I, V, M, F. Y, and W, along with D, E, A, and R as negative controls. All peptides contained a penultimate alanine (A) and consisted of the sequence XAKLDEESILKQK (SEQ ID NO: 238).
Results from the biolayer interferometry screening of 61 ClpS homologs (58 new homologs, 3 reference homologs) are shown in FIG. 29B. Response (y-axis) is plotted against the inverse of dissociation rate for eight different dipeptides (data not shown for negative controls DA, AA, and RA). In these plots, higher values on the y-axis correspond to stronger association response and higher values on the x-axis indicate slower dissociation rates.
The effect of penultimate amino acids on isoleucine and valine binding by PS372 were evaluated by measuring binding to peptides with N-terminal IR, IQ, and VR by biolayer interferometry (peptide sequence: XXKLDEESILKQK (SEQ ID NO: 291)). Measurements were also obtained with teClpS for comparison.

[3] = system: FITC-labeled peptide (XAKLDEESILKQK-FITC (SEQ ID NO: 238)); experiment: Fluorescence polarization of ClpS:streptavidin complexes; format: binding; conditions: 30 minute incubation at 23° C.
Experimental: ClpS homologs were evaluated by fluorescence polarization to measure the interaction of a FITC-labeled peptide (XAKLDEESILKQK-FITC (SEQ ID NO: 238)) with ClpS:streptavidin complexes. Measurements of polarization response (millipolarization, mP) and total intensity for I, V, L, F, Y, and W were performed in a high-throughput 384-well plate format, using 480 nm excitation and 530 nm emission wavelength with readings collected after 30 minute incubation at 23° C. The results with in-solution binding validated that PS372 binds with leucine, isoleucine, and valine with strength of response in the order LA>IA>VA (FIG. 29E). Binding responses of atClpS2-V1 were FA>YA>WA, and those of teClpS were LA>FA>YA>WA.

[4] = system: LF, LA, IR, IA, VR, and VA peptides; experiment: Binder-on-chip single-molecule assay (PS372); format: binding
Experimental: Binder-on-chip experiments were performed for PS372 with LF, LA, IR, IA, VR, and VA peptides to evaluate recognition by signal pulse detection in single-molecule assays. […] For comparison, the mean pulse width observed with the L-binder teClpS was 768 ms (˜37% shorter than PS372).

[5] = system: peptides with different N-terminal amino acids, penultimate alanine; experiment: Biolayer interferometry of multivalent amino acid binders; format: binding
Experimental: The amino acid binding profile of each Bis-atClpS2-V1 binder (PS609, PS610, and PS611) was evaluated by biolayer interferometry as described above. The monovalent atClpS2-V1 was run as a control. Measurements with each binder were carried out for the amino acids F, Y, and W, along with I, L, M, and V as negative controls. All peptides contained a penultimate alanine (A). Response curves for the tandem binders PS609, PS610, and PS611 are shown in FIGS. 35B, 35C, and 35D, respectively.
The multivalent binder PS612 is a polypeptide that contains tandem copies of two different ClpS protein monomers (atClpS2-V1 and PS372). The amino acid binding profile of PS612 was evaluated by biolayer interferometry as described above. The monovalent binders atClpS2-V1 and PS372 were separately run as controls.
The multivalent binder PS614 is a polypeptide that contains two copies of the ClpS binder PS372 oriented in tandem. The amino acid binding profile of PS614 was evaluated by biolayer interferometry as described above.
The multivalent binders PS637, PS638, and PS639 are polypeptides that each contain two copies of the ClpS binder PS557 oriented in tandem and separated by Linker 1, Linker 2, and Linker 3, respectively. The amino acid binding profiles of each binder was evaluated by biolayer interferometry as described above.

[6] = system: N-terminal isoleucine peptide and N-terminal leucine peptide; experiment: Peptide-on-chip recognition assay with labeled PS372; format: binding
[7] = system: amino acid at a terminal position of a polypeptide; conditions: Table 2; amino acid identity at a terminal position (phosphotyrosine also internal); inferred from literature and/or demonstrated by the inventors; cited from earlier work
[8] = target: T1, fluorescently-labeled peptide containing N-terminal phospho-tyrosine (Homo sapiens, UniProt P06241, C239S/C240S/C246S/K204L/S186A/T181V); experiment: Single-molecule recognition of modified amino acids by immobilized Fyn SH2 variant; format: binding
T1 construct: Src Homology 2 (SH2) domain from Fyn
Experimental: Experiments were performed to evaluate recognition of amino acids containing specific post-translation modifications. […] The variant protein was immobilized to the bottom of sample wells, and single-molecule signal traces were collected upon addition of a fluorescently-labeled peptide containing N-terminal phospho-tyrosine. […] Pulse duration data collected during these experiments is shown in FIG. 22B (top, middle, and bottom plots corresponding to the top, middle, and bottom traces of FIG. 22A, respectively). Pulse duration and interpulse duration statistics are shown in FIG. 22C (top and bottom panels, respectively). Control experiments were performed to confirm that the Fyn protein was specific for the phosphorylated tyrosine. The experiments were repeated for each of three different peptides: a first peptide containing N-terminal unmodified tyrosine (Y; FIG. 22D), a second peptide containing N-terminal and penultimate unmodified tyrosines (YY; FIG. 22E), and a third peptide containing N-terminal phospho-serine (FIG. 22F).

[9] = system: N-terminal amino acids of peptides; experiment: Single-molecule terminal amino acid recognition by labeled recognition molecule (dwell time analysis); format: binding
Experimental: An adaptor protein involved in proteolytic pathways was identified as a potential candidate for use as a labeled recognition molecule for detecting N-terminal aromatic residues. The adaptor protein, ClpS2 from an α-proteobacterium (A. tumefaciens), was expressed and labeled at an exposed cysteine residue. […] The exposed cysteine residue was labeled with a rhodamine dye (ATTO 532).
Peptides having different N-terminal aromatic residues were prepared to test whether the labeled ClpS2 was capable of N-terminal amino acid discrimination at the single molecule level.
FIG. 19C is a plot showing discriminant pulse durations (time duration of signal peaks) among the three N-terminal residues when reversibly bound by labeled ClpS2. FIG. 19D is a plot showing discriminant interpulse durations (time duration between signal pulses) among the three N-terminal residues. […] Mean pulse duration for the different N-terminal residues is visualized by histograms (A)-(B) and layered histogram (C).

[10] = system: immobilized peptide containing N-terminal phenylalanine (FYPLPWPDDDY (SEQ ID NO: 235)); experiment: Simultaneous single-molecule recognition with differentially labeled recognition molecules; format: binding; conditions: 500 nM each binder
Experimental: Single peptide molecules containing N-terminal phenylalanine ([…] (SEQ ID NO: 235)) were immobilized in sample wells of a chip. Buffer containing 500 nM each of atClpS1 (Agrobacterium tumifaciens ClpS1; sequence provided in Table 1) and atClpS2-V1 (Agrobacterium tumifaciens ClpS2 variant 1; sequence provided in Table 1) was added, where atClpS1 and atClpS2-V1 were labeled with Cy3 and Cy3B, respectively. Since the intensity of Cy3B is higher than Cy3, atClpS2-V1 binding events were readily distinguishable from atClpS1 binding events.
The pulse duration distributions were distinct for each binder (FIG. 24B) and corresponded to their kinetic profiles as observed in single-binder experiments. Mean pulse duration was 1.3 seconds for atClpS1 and 1.0 seconds for atClpS2-V1 (FIG. 24C). Pulse rate was also distinct: 8.1 pulses/min for atClpS1 and 14.1 pulses/min for atClp2-V1 (FIG. 24C).

[11] = system: labeled N-terminal FA peptide; experiment: Stopped-flow dissociation rate (koff), atClpS2-V1 derivatives; format: binding; conditions: excess unlabeled trap peptide
Description: To measure the dissociation rate (koff) by stopped-flow, complexes of binder bound to labeled peptide substrate at an optimal concentration were rapidly mixed with excess unlabeled trap peptide. […] The averaged raw traces were fitted with an exponential equation to determine the koff (FIG. 37B, bottom panel).

B1: PS372: ClpS homolog binding leucine, isoleucine and valine, SEQ ID NO: 5 (protein)
chain: MAFPARGKTAPKNEVRRQPPYNVILLNDDDHTYRYVIEMLQKIFGFPPEKGFQIAEEVDRTGRVILLTTSKEHAELKQDQVHSYGPDPYLGRPCSGSMTCVIEPAV
Binding Pref. [1]: L, I, V | amino acids bound (biolayer interferometry) ([2]; 30° C., penultimate alanine): binder of leucine, isoleucine, and valine | binding to the F, Y, or W peptides ([2]; 30° C., penultimate alanine): did not show binding | binding to isoleucine peptides, effect of penultimate amino acid [2]: binds IQ and IA with higher affinity relative to IR | binding to valine peptides, effect of penultimate amino acid [2]: binds well with VA and has negligible response with VR | order of strength of polarization response [3]: LA>IA>VA | mean pulse width ([4]; IA peptide): 70 ms | mean pulse width ([4]; IR peptide): 83 ms | mean pulse width ([4]; LA peptide): 876 ms | mean pulse width ([4]; LF peptide): 1207 ms | N-terminal amino acids bound (biolayer interferometry) [5]: binds N-terminal I, L, and V

B2: dye-labeled PS372: PEGylated, biotinylated PS372 conjugated 1:1 with streptavidin and a biotinylated Cy3B-labeled oligonucleotide (conjugate)
chain: MAFPARGKTAPKNEVRRQPPYNVILLNDDDHTYRYVIEMLQKIFGFPPEKGFQIAEEVDRTGRVILLTTSKEHAELKQDQVHSYGPDPYLGRPCSGSMTCVIEPAV
mean pulse width ([6]; N-terminal isoleucine peptide (IAALAAVAADDDW (SEQ ID NO: 239))): 78 ms | mean pulse width ([6]; N-terminal leucine peptide (LAAIAAFAADDDW (SEQ ID NO: 292))): 957 ms

B3: H. sapiens Fyn SH2 domain triple mutant superbinder: SEQ ID NO: 117 (protein, listed as Homo sapiens)
chain: MGAMDSIQAEEWYFGKLGRKDAERQLLSFGNPRGTFLIRESETVKGAYALSIRDWDDMKGDHVKHYLIRKLDNGGYYITTRAQFETLQQLVQHYSERAAGLSSRLVVPSHK
Binding Pref. [7]: phospho-Y | peptide binding (single-molecule signal traces) ([8]; negative controls: N-terminal unmodified tyrosine (Y), YY, N-terminal phospho-serine): binding was not detected | peptide binding (single-molecule signal traces) ([8]; peptide containing N-terminal phospho-tyrosine): Peptide binding by the immobilized protein was detected

B4: atClpS1: Agrobacterium tumifaciens ClpS1, SEQ ID NO: 93 (protein, listed as Agrobacterium tumifaciens)
chain: MIAEPICMQGEGDGEDGGTNRGTSVITRVKPKTKRPNLYRVLLLNDDYTPMEFVIHILERFFQKDREAATRIMLHVHQHGVGECGVFTYEVAETKVSQVMDFARQHQHPLQCVMEKK
Binding Pref. [1]: F, W, Y, L | recognition of terminal amino acids (dwell time analysis) [9]: differentiable recognition of phenylalanine, leucine, tryptophan, and tyrosine | Pulse rate [10]: 8.1 pulses/min | mean pulse duration [10]: 1.3 s

B5: teClpS: ClpS protein, SEQ ID NO: 107 (protein, listed as Thermosynechococcus elongatus)
chain: MPQERQQVTRKHYPNYKVIVLNDDFNTFQHVAACLMKYIPNMTSDRAWELTNQVHYEGQAIVWVGPQEQAELYHEQLLRAGLTMAPLEPE
Binding Pref. [1]: F, W, Y, L | binding to isoleucine peptides, effect of penultimate amino acid [2]: minor response with very fast dissociation for IR peptide only | binding to valine peptides, effect of penultimate amino acid [2]: no response with V peptides | order of strength of polarization response [3]: LA>FA>YA>WA | mean pulse duration ([9]; terminal leucine residue): 0.71 s | mean pulse width ([4]; L-binder comparison, peptide not stated): 768 ms

B6: PS705 (protein)
chain: MSDSPVDLKPKPKVKPKLERPKLYKVMLLNDDYTPMSFVTVVLKAVFRMSEDTGRRVMMTAHRFGSAVVVVCERDIAETKAKEATDLGKEAGFPLMFTTEPEEHHHHHHHHHHGGGSGGGSGGGSGLNDFFEAQKIEWHEGGGSGGGSGGGSGLNDFFEAQKIEWHEGSAGSAAGSGEFMDKDCEMKRTTLDSPLGKLELSGCEQGLHEIKLLGKGTSAADAVEVPAPAAVLGGPEPLMQATAWLNAYFHQPEAIEEFPVPALHHPVFQQESFTRQVLWKLLKVVKFGEVISYQQLAALAGNPAATAAVKTALSGNPVPILIPCHRVVSSSGAVGGYEGGLAVKEWLLAHEGHRLGKPGLG
FA koff [11]: 1.2655 s⁻¹
